Key:
[1] = molecular target: T1, protein encoded by ph01207 (Homo sapiens, UniProt O60241, DEL308-362); assay: Changes in intracellular Ca2+ concentration in HA-ph01207#10-6 cell strain (CHO-K1 stably expressing ph01207); format: cell-based; settings: peptide at final concentration 1 nM
T1 construct: expressed in transfected cells; host or cells: CHO-K1 (HA-ph01207#10-6, FERM BP-10101), T8HA-attR/pCINeo
T1 sequence (O60241 with tags, fused parts or gaps DEL308-362): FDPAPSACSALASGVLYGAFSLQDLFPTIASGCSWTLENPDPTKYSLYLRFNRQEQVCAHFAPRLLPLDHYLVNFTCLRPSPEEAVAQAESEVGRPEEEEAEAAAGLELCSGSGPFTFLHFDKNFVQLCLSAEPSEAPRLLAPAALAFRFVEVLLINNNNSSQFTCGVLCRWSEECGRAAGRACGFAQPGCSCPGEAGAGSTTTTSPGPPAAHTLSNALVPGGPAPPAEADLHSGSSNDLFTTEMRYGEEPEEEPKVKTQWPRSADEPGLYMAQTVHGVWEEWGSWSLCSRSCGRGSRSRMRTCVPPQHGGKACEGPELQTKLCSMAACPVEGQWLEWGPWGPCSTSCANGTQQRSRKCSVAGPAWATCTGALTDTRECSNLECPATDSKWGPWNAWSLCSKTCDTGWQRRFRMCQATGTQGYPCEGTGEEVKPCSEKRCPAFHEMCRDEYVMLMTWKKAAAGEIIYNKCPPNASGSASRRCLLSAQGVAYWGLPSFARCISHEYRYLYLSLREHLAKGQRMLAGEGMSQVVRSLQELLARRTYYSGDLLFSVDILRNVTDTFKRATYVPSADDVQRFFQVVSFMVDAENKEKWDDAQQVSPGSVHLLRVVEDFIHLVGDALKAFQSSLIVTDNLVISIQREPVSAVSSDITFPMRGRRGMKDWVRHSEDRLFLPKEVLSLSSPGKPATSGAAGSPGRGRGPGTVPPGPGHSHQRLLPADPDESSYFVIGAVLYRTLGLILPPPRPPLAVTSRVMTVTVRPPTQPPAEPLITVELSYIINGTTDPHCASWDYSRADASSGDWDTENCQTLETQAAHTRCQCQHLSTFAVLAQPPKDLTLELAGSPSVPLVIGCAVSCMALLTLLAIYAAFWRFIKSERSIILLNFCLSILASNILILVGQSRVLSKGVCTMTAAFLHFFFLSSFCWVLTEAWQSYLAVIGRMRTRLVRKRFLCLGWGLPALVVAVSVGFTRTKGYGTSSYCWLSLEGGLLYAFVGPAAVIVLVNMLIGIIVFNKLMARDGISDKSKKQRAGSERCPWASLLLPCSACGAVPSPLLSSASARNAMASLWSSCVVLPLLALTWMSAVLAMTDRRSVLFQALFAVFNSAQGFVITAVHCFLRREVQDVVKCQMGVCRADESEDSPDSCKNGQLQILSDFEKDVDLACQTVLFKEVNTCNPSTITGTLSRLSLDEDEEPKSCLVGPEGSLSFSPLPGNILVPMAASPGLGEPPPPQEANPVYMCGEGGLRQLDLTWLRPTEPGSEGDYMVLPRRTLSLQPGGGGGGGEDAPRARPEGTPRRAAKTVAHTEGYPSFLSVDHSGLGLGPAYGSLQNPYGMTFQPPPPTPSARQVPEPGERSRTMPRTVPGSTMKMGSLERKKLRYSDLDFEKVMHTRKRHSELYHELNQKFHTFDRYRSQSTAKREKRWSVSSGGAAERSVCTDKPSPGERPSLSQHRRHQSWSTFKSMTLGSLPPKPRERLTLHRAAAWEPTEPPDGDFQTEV
Procedure: Changes in the intracellular calcium (Ca^2+) concentration induced by CCK-8S (SEQ ID NO: 14), CCK-8NS, or CCK-4 were measured using the cell strains expressing ph01207 prepared in Example 2. The cell strains prepared in Example 2 were eight strains that expressed the protein encoded by ph01207 as FLAG-tag fusion proteins and four strains that expressed the protein encoded by ph01207 as HA-tag fusion proteins. Of these, the HA-ph01207#10-6 cell strain, a strain obtained by cloning one of the cell strains that stably expressed the protein encoded by ph01207 as HA-tag fusion proteins, was used in this example. CCK-8NS was a CCK octapeptide having the same amino acid sequence as that of CCK-8S (SEQ ID NO: 14), but a region from the C terminus to the seventh tyrosine residue was not sulfated. CCK-4 was a tetrapeptide comprising residues from the C terminus to the fourth amino acid of CCK-8S (SEQ ID NO: 14).
The specific method for measuring changes in the intracellular Ca^2+ concentration in the HA-ph01207#10-6 cell strain induced by CCK-8S (SEQ ID NO: 14) and the results are described below. The HA-ph01207#10-6 cell strain was seeded on a 96-well plate (a plate with a black wall and a transparent bottom) at a cell count of 2×10^4/100 μL medium/well and cultured at 37° C. in the presence of 5% CO2. As a medium, DMEM/F12 (Gibco) containing 10% fetal calf serum (Moregate) was used. On the following day, 50 μL of the medium was removed from each well, 50 μL of a loading buffer was added to each well, and the mixture was reacted at room temperature for 1.5 h, so that a fluorescent dye contained in the loading buffer should be taken up into the cell. The loading buffer was prepared by dissolving component A of the FLIPR Calcium 3 Assay Kit (Molecular Device) in a solution obtained by adding 0.1 mL of 500 mM probenecid (Sigma) to 9.9 mL of component B. After reaction, changes over time in the fluorescence intensity in each well after addition of CCK-8S (Peptide Institute, Inc.) were measured using the FLEX station (Molecular Device). Furthermore, similar measurement was performed for CCK-8NS (Peptide Institute, Inc.) and CCK-4 (Peptide Institute, Inc.). 0.52 mg of CCK-8S (SEQ ID NO: 14) was dissolved in 4.5 mL of 1% NaHCO3 (Wako) to prepare a solution having 0.1 mM concentration. 0.53 mg of CCK-8NS was dissolved in 0.50 mL of dimethyl sulfoxide (DMSO, Sigma), and then 4.50 mL of redistilled water H2O was added to prepare a solution having 0.1 mM concentration. 0.54 mg of CCK-4 was dissolved in 0.46 mL of DMSO, 4.09 mL of redistilled water was added to prepare a solution having 0.2 mM concentration. […]

CHO-K1 cell strain = assay: Changes in intracellular Ca2+ concentration in CHO-K1 host cell not transfected (negative control); format: cell-based, Chinese hamster; settings: CHO-K1 not transfected; peptide 1 nM (Example 5)
Procedure: The specific method for measuring changes in the intracellular Ca^2+ concentration in the HA-ph01207#10-6 cell strain induced by CCK-8S (SEQ ID NO: 14) and the results are described below. The HA-ph01207#10-6 cell strain was seeded on a 96-well plate (a plate with a black wall and a transparent bottom) at a cell count of 2×10^4/100 μL medium/well and cultured at 37° C. in the presence of 5% CO2. As a medium, DMEM/F12 (Gibco) containing 10% fetal calf serum (Moregate) was used. On the following day, 50 μL of the medium was removed from each well, 50 μL of a loading buffer was added to each well, and the mixture was reacted at room temperature for 1.5 h, so that a fluorescent dye contained in the loading buffer should be taken up into the cell. The loading buffer was prepared by dissolving component A of the FLIPR Calcium 3 Assay Kit (Molecular Device) in a solution obtained by adding 0.1 mL of 500 mM probenecid (Sigma) to 9.9 mL of component B. After reaction, changes over time in the fluorescence intensity in each well after addition of CCK-8S (Peptide Institute, Inc.) were measured using the FLEX station (Molecular Device). Furthermore, similar measurement was performed for CCK-8NS (Peptide Institute, Inc.) and CCK-4 (Peptide Institute, Inc.). 0.52 mg of CCK-8S (SEQ ID NO: 14) was dissolved in 4.5 mL of 1% NaHCO3 (Wako) to prepare a solution having 0.1 mM concentration. 0.53 mg of CCK-8NS was dissolved in 0.50 mL of dimethyl sulfoxide (DMSO, Sigma), and then 4.50 mL of redistilled water H2O was added to prepare a solution having 0.1 mM concentration. 0.54 mg of CCK-4 was dissolved in 0.46 mL of DMSO, 4.09 mL of redistilled water was added to prepare a solution having 0.2 mM concentration. CCK-8S (SEQ ID NO: 14), CCK-8NS, and CCK-4 were diluted in phosphate-buffered physiological saline (PBS) to prepare 5 nM solutions, and 25 μL each was added (final concentration 1 nM) to perform measurement. As a positive control for including an increase in the intracellular Ca^2+ concentration, A23187 (Calbiochem) was used at a final concentration of 10 μM. As a negative control, the CHO-K1 cell strain used to prepare the HA-ph01207#10-6 cell strain as a host was used. Since the CHO-K1 cell strain was not transfected with the ph01207-expressing vector, the ph01207 gene product was not expressed.
Changes in the intracellular calcium (Ca^2+) concentration induced by CCK-8S were measured by a method similar to the method described in Example 5 using the 7tmHR stably-expressing strain and the hk01941 stably-expressing strain prepared in Example 7. As a control, a host cell not transfected with the 7tmHR-expressing vector or the hk01941-expressing vector was also used.
Cells were seeded in a 96-well plate (a plate with a black wall and a transparent bottom) at a cell count of 3×10^4/100 μL of medium/well and cultured overnight at 37° C. in a 5% CO2 incubator. On the following day, 50 μL of the medium was removed from each well, […] of a loading buffer was added to each well, and the mixture was reacted at room temperature for 1 h, so that a fluorescent dye contained in the loading buffer was taken up into the cell. The loading buffer was prepared by a method similar to the method described in Example 5. After reaction, changes over time in the fluorescence intensity in each well after addition of CCK-8S were measured using the FLEX station (Molecular Device). CCK-8S was used at a final concentration of 10 pM to 1 μM. Furthermore, as a positive control of the assay, A23187 was used at a final concentration of 20 μM.
Cells were seeded in a 96-well plate (a plate with a black wall and a transparent bottom) at a cell count of 3×10^4/100 μL of medium/well and cultured overnight at 37° C. in a 5% CO2 incubator. […]

Substance	Change in intracellular Ca2+ concentration (fluorescence intensity) [1]	Change in intracellular Ca2+ concentration (fluorescence intensity) (CHO-K1 cell strain)
CCK-4: tetrapeptide comprising residues from the C terminus to the fourth amino acid of CCK-8S	did not increase	not increased
CCK-8 nonsulfated form [CCK-8NS]	did not increase	not increased
